Columns and labels:
MxPPO [1] = experiment: Herbicide tolerance test of MxPPO wild type and variants in PPO-deficient E. coli BT3(ΔPPO), growth on herbicide-containing LB agar; type: cell-based, Myxococcus xanthus; details: relative to MxPPO WT, light; for Herbicide tolerance, flumioxazin: up to 400 μM (FIGS. 15-17); for Herbicide tolerance, sulfentrazone: up to 1000 μM (FIGS. 18-20); for Herbicide tolerance, tiafenacil: 2000 μM (FIG. 14)
Protocol: Then, the extent of tolerance was evaluated.

MxPPO [2] = experiment: PPO enzyme activity of purified MBP-fused MxPPO wild type and variants; type: biochemical, Myxococcus xanthus; details: PPO enzyme activity of purified MxPPO protein, relative to wild type
Protocol: Thus, PPO proteins of wild type and variants were expressed as fused to MBP and were used for experiments.
The following process for purification of PPO protein was performed in a 4° C. cold room. […] The column was washed with 3 column volumes of buffer and the presence of protein in the washing solution was examined. When the protein was no longer detected, the washing procedure was terminated. Then, the MBP-PPO protein was eluted with approximately 2 column volumes of buffer containing 20 mM maltose. The protein concentration of each eluent was determined and the elution was stopped when the protein was no longer detected. Ten microliter of each fraction was investigated for protein quantification and SDS-PAGE analysis. The highly pure fractions of PPO protein variants were used for the enzyme assay.
Since protoporphyrinogen IX, a substrate of PPO protein, was not commercially available, it was chemically synthesized in the laboratory. Overall process was performed in dark under nitrogen stream. […] of protoporphyrin IX was dissolved in 20 ml of 20% (v/v) EtOH, and stirred under dark condition for 30 minutes. The obtained protoporphyrin IX solution was put into a 15 ml screw tube in an amount of 800 μl, and flushed with nitrogen gas for 5 minutes. To this, 1.5 g of sodium amalgam was added and vigorously shaken for 2 minutes. The lid was opened to exhaust hydrogen gas in the tube. Thereafter, the lid was closed and incubated for 3 minutes. The protoporphyrinogen IX solution was filtered using syringe and cellulose membrane filter. To 600 μl of the obtained protoporphyrinogen IX solution, approximately 300 μl of 2M MOPS [3-(N-morpholino) propanesulfonic acid] was added to adjust pH to 8.0. To determine the enzyme activity of PPO protein, a reaction mixture was prepared with the following composition (based on 10 ml): 50 mM Tris-Cl (pH 8.0); 50 mM NaCl; 0.04% (v/v) Tween 20; 40 mM glucose (0.072 g); 5 units glucose oxidase (16.6 mg); and 10 units catalase (1 μl).
Hundred and eighty microliters of a reaction mixture […] were placed in 96 well plates and 20 μl of purified PPO proteins were added. After 50 μl of the mineral oil was layered, the reaction was initiated by adding the substrate, protoporphyrinogen IX solution, to a final concentration of 50 μM. The reaction proceeded at room temperature for 30 min and the fluorescence of protoporphyrin IX was measured using Microplate reader (Sense, Hidex) (excitation: 405 nm; emission: 633 nm). To calculate the PPO enzyme activity, the protoporphyrinogen IX solution was kept open in the air overnight to oxidize the solution. To this, 2.7 N HCl was added, and the absorbance at 408 nm was measured. A standard curve was generated using standard protoporphyrin IX, and PPO activity was measured by calibration of protoporphyrin IX using the standard curve of protoporphyrin IX.
Activities of variants were presented relatively compared to that of wild type.

| Molecule | Herbicide tolerance, flumioxazin (MxPPO [1]) | Herbicide tolerance, sulfentrazone (MxPPO [1]) | Activity (%) (MxPPO [2]) | Herbicide tolerance, tiafenacil (MxPPO [1]) |
| --- | --- | --- | --- | --- |
| A170C + M365I: MxPPO (SEQ ID NO: 3) variant (protein, Synthetic (Protoporphyrinogen IX oxidase (MxPPO) of Myxococcus xanthus)) MHHMPRTTGMNVAVVGGGISGLAVAHHLRSRGTDAVLLESSARLGGAVGTHALAGYLVEQGPNSFLDREPATRALAAALNLEGRIRAADPAAKRRYVYTRGRLRSVPASPPAFLASDILPLGARLRVAGELFSRRAPEGVDESLAAFGRRHLGHRATQVLLDAVQTGIYCGDVEQLSVAATFPMLVKMEREHRSLILGAIRAQKAQRQAALPAGTAPKLSGALSTFDGGLQVLIDALAASLGDAAHVGARVEGLAREDGGWRLIIEEHGRRAELSVAQVVLAAPAHATAKLLRPLDDALAALVAGIAYAPIAVVHLGFDAGTLPAPDGFGFLVPAEEQRRMLGAIHASTTFPFRAEGGRVLYSCIVGGARQPGLVEQDEDALAALAREELKALAGVTARPSFTRVFRWPLGIPQYNLGHLERVAAIDAALQRLPGLHLIGNAYKGVGLNDCIRNAAQLADALVAGNTSHAP | + (1-9 fold higher tolerance) | + (1-9 fold higher tolerance) | 78 |  |
| I311M + M365I: MxPPO (SEQ ID NO: 3) variant (protein, Synthetic (Protoporphyrinogen IX oxidase (MxPPO) of Myxococcus xanthus)) MHHMPRTTGMNVAVVGGGISGLAVAHHLRSRGTDAVLLESSARLGGAVGTHALAGYLVEQGPNSFLDREPATRALAAALNLEGRIRAADPAAKRRYVYTRGRLRSVPASPPAFLASDILPLGARLRVAGELFSRRAPEGVDESLAAFGRRHLGHRATQVLLDAVQTGIYAGDVEQLSVAATFPMLVKMEREHRSLILGAIRAQKAQRQAALPAGTAPKLSGALSTFDGGLQVLIDALAASLGDAAHVGARVEGLAREDGGWRLIIEEHGRRAELSVAQVVLAAPAHATAKLLRPLDDALAALVAGIAYAPMAVVHLGFDAGTLPAPDGFGFLVPAEEQRRMLGAIHASTTFPFRAEGGRVLYSCIVGGARQPGLVEQDEDALAALAREELKALAGVTARPSFTRVFRWPLGIPQYNLGHLERVAAIDAALQRLPGLHLIGNAYKGVGLNDCIRNAAQLADALVAGNTSHAP | ++ (10-99 fold higher tolerance) | + (1-9 fold higher tolerance) | 75 | + (1-9 fold higher tolerance) |
| A170C + M365V: MxPPO (SEQ ID NO: 3) variant (protein, Synthetic (Protoporphyrinogen IX oxidase (MxPPO) of Myxococcus xanthus)) MHHMPRTTGMNVAVVGGGISGLAVAHHLRSRGTDAVLLESSARLGGAVGTHALAGYLVEQGPNSFLDREPATRALAAALNLEGRIRAADPAAKRRYVYTRGRLRSVPASPPAFLASDILPLGARLRVAGELFSRRAPEGVDESLAAFGRRHLGHRATQVLLDAVQTGIYCGDVEQLSVAATFPMLVKMEREHRSLILGAIRAQKAQRQAALPAGTAPKLSGALSTFDGGLQVLIDALAASLGDAAHVGARVEGLAREDGGWRLIIEEHGRRAELSVAQVVLAAPAHATAKLLRPLDDALAALVAGIAYAPIAVVHLGFDAGTLPAPDGFGFLVPAEEQRRMLGAIHASTTFPFRAEGGRVLYSCVVGGARQPGLVEQDEDALAALAREELKALAGVTARPSFTRVFRWPLGIPQYNLGHLERVAAIDAALQRLPGLHLIGNAYKGVGLNDCIRNAAQLADALVAGNTSHAP | ++ (10-99 fold higher tolerance) | + (1-9 fold higher tolerance) | 71 | + (1-9 fold higher tolerance) |
